Experimental data as given in the DeepSol protein solubility set.

assay: soluble on expression in E. coli; label from the status in PepcDB or PDB records

| Sequence | soluble on expression in E. coli |
| --- | --- |
| MGSDKIHHHHHHMSKTIQAITNQIWSMANELRGNMDASEYKNYILAFMFYRYLSEHQERFLVEDEIISPAPGETVQDAYVREAVGNDLVEHLENTASHLGYAIEPEDTWARLVAKIDNSEIVASDYQTIFDHFNANVELNRDAMEDFRGVFNDINLGDSRLGNSTVARAKSLNSIVKLIDSIEYKNDEGKDILGEIYEYLIGQFAASAGKKGGEFYTPHQVSKILAKIVTLGLEKSDTSFSVYDPTMGSGSLLLTVRNELPQGQHIKFYGQEMNTTTYNLARMNLMMHQVSYSNMILNNADTLESDWPDGVDELGIDQPRSFDAVVANPPYSAKWDNRESKLKDPRFMEYGKLAPASKADFAFILHSLYHLNNTGTMAIVLPHGVLFRGAAEGHIRKLIIEKNYLDAVIGLPANLFYGTGIPTTILVFKKNRQTKDVFFIDASKEFEKGKNQNHLSDDMVEKIVETYHNRQSVDKYAHLASIEEIVENDYNLNIPRYVDTFEEEEEIDLGQVTQQLEQDRLEIRALEDKIRQQLKTLGVDF | not soluble |
| MRTELLSKLYDDFGIDQLPHTQHGVTSDRLGKLYEKYILDIFKDIESLKKYNTNAFPQEKDISSKLLKALNLDLDNIIDVSSSDTDLGRTIAGGSPKTDATIRFTFHNQSSRLVPLNIKHSSKKKVSIAEYDVETICTGVGISDGELKELIRKHQNDQSAKLFTPVQKQRLTELLEPYRERFIRWCVTLRAEKSEGNILHPDLLIRFQVIDREYVDVTIKNIDDYVSDRIAEGSKARKPGFGTGLNWTYASGSKAKKMQFKG | soluble |
| MAHHHHHHMKELVSSFLNNLSQVSSELSCCKNKKFHVDNVSLCGIEDVLHNRDRSSLIDKEKINTLMELYKNENIYESYEEYDIDKYEKIKNNNILKNMGGNKLNVCNACLFCNNNNSQNHMNKNKNVSENINNVIDLDDEILIANFPFNSLRDVENLTYTNSEHTLNNKEYSYIKNSIDLDFDQQIKNQKKNNNSKNSSHLYNEIVKEGEYDNDDSPNFDEDSSQFKFSVLNNIKNNIHNTKDELTNNYNIIKNTLNQDYEKNIDQKEKHDIIVDNMVNSVDYQNDMDTNIKTKKKKKNQAYSNFYAKSDLPSSNIDEGSCKGCKASDTSSEFFSVASGMKPNN | not soluble |
| MMQISDTYNQKHSLFNAMNRFIGAVNNMDQTVMVPSLLRDVPLDMEVKDEVHNTIGATNYFSRTDMHGYYILLKSIRNDIEWGVVQGEDRKKDKLSNMEISRLEDGDGEEDLEKQFHYHLSGLHTVLNKLTRKAHILTNRYKEEIGFGSWGH | not soluble |
| MGSDKIHHHHHHMKVTLIGIDLAKNVLQVCGVNQVGKTLFNRTVKRTQLLKTLVQYPDAVIAMEACSGSNYWGRELLSRGFEVKLIPPQHVKPFVKGNKNDRNDAFAICEAAMRPNIIFVKPRTLAQVDIIISHRIRERRIRVRTALTNQIRGLLSEYGIVIPKGRDPLNLALPELLEDADNSLTTTARRYIRELLDELYAINASIKALEKEIRLQARNHEDTKRLTAIRGVAEIIATASVSFAGDGSGYQNGRHFSANLGLVPKEFSSGGKQKLGAITKRGNSYLRRQLIQGAWSVIRYAKNNDDRLSVWARKVIERRGKQKAAVAVANKLARIIWAMLYYKTEYRPS | not soluble |
| MGHHHHHHSHMFVSDFRKEFYEVVQSQRVLLFVASDVDALCACKILQALFQCDHVQYTLVPVSGWQELETAFLEHKEQFHYFILINCGANVDLLDILQPDEDTIFFVCDTHRPVNVVNVYNDTQIKLLIKQDDDLEVPAYEDIFRDEEED | soluble |
| MSLKKVTLLVLDGFGVGAMADCEKVKPEDVNANTYKHLREAVDIHIPTLYQLGLGNIVDHLDTARAAYGRCDLAHHGADTFMGHQELMGSKPGVPQKRLMSEVGATIKKNLEKHGYDVRDPVEGAPVLLVNEAVVVGDNLESEVGNIINVVGDFRKLSFEQTIEVGKVVRSSVDTSRVIVYGNKEKTSIDLILSTIKERHPGQWGVDSPKANVYGEGYQVLHLGYGVDYEKQFAHLAEKQRLPVYRIGKTADVIQASGYHNPVVSTRKVLEVYQHEYSKSERDSVFLVNVQETDLAGHKEDCLWYKEVIEEVDRFLASFIDELDEEDLLIITADHGNDPTIGHSNHTREQTPVIIVGPQVRPISIGTRQTMADLAATMADYMGVAPPQYGTSFLHQILREGHHHHHH | soluble |
| MSSDVAGVKKSSSSSSSTSSPFMFSMLLMFSRSISSTIKISANRILLCCTSSFSTTSGFFKIESNRLTSRSSSGIFSRTACNRSCGNCFSISAVLSFCVAPLCCKSTGRFSSAIYLLIFRSTR | soluble |
| DLQNMDATNWLGNSVSEGFIHQFQRRGFKVVDFKTTGSIQVTQQGDFALSRDWQDLAQEQQIQYVLTGTMLRQEGGVLVNARVVGMQSRVVVATAQGFLPADRIGRDLDTLNSIRTQDGVLIRSDPTIRQPYTVILRP | not soluble |
| MITFQEFVNYWFEAYAKIAVKQSTQKRYRELLIPAIKAIGTKPLSDIKPLDIQKIYMNLTGKLSDSTILKLHRLLHEIFKHAVMWEYISDNPVKKVLPPSPELEHHHHHH | soluble |
| MGSDKIHHHHHHMGNKIYPIGIQNFESLRLDGYFYIDKTALIYQLVKSGRYYFLSRPRRFGKSLLISTLEAYFQGKKELFQGLAMEKLEKDWTKYPILHIDLNTQKYDSPQSLESKLNRTLVTWEKLYGSEPAEDSLSMRFEGTIQRAYEQTGQRVVILVDEYDKPMLQAIGNKELQNSFRETLKAFYGALKSKDGCIKFAMLTGVTKFGKVSVFSDLNNLDDISMWNEYIELCGISEKEIHKNLETELHEFADVQKMTYDSFCEKLRQYYDGYHFTHNSIGMYNPFSLLNAFKRKEFGSYWFETGTPTYLVELLKRHHYNLERMAHEETNAQVLNSIDSESTSPIPVIYQSGYLTIKGYDEEFGIYHLGFPNKEVEEGFIQFLVPYYTSMNNVESPFEI | not soluble |
| MGSDKIHHHHHHMKAVLVEQPGSSEQLKVVEREIPKIKEGWSLVKIKGFGINRSEIFTRKGYSPSVVFPRVLGIECVGIIEETSDKNHFFHGQKVVSIMGEMGRAFDGSYAEYVLLPNEQIYPIKTNLTWDKLAAAPESYYTAYGAYKNLKLKKQDLVLVRAGASGVALAFLNLLKASLPEIKVTASVRSLAKKQQLLDSGYDEVIIDRDSCLQTKQKFDKVLDLIGPACIDDTLNHVADGGIICLVGLLGGQWTLDNFDPIMALQNNIYLTTFYSGNINLNKLQELFDFIAKYAVPIKVEKIFTIDHIKEAHDYLESPQAFGKVIVLNGVA | not soluble |
| MSSEDRHLGSSCGSFIKTEPSSPSSGIDALSHHSPSGSSDASGGFGIALSTHANGLDSPPMFAGAGLGGNPCRKSYEDCTSGIMEDSAIKCEYMLNAIPKRLCLVCGDIASGYHYGVASCEACKAFFKRTIQGNIEYNCPATNECEITKRRRKSCQACRFMKCLKVGMLKEGVRLDRVRGGRQKYKRRLDSENSPYLNLPISPPAKKPLTKIVSNLLGVEQDKLYAMPPNDIPEGDIKALTTLCELADRELVFLINWAKHIPGFPSLTLGDQMSLLQSAWMEILILGIVYRSLPYDDKLAYAEDYIMDEEHSRLVGLLDLYRAILQLVRRYKKLKVEKEEFMILKALALANSDSMYIENLEAVQKLQDLLHEALQDYELSQRHEEPRRAGKLLWTLPLLRQTAAKAVQHFYSVKLQGKVPMHKLFLEMLEAKV | soluble |
| MVRVGMRAAPRVSLEALKAALGGLKLSEAKVYLITDWQDKRDQARYALLLHTGKKDLLVPDAFGPAFPGGEEALSELVGLLLAQGARRFYEAVVSPGEMTALLDLPPEELLKRVMAIANPTDPGIYLKRAA | soluble |
| MDDDPHFDQNVQTVIAKTEAYITESVKAGGTGRALRDAHAKGYGLVRGEVEILDGLPPEYAQGIYATPGTHDALIRFSNGSPHAGADARLGAATGLALKIFDIPGPTLLEDEPDTGTFDYANINGPIFFCNTVEHYLFIQELFLNAPAYFSQGRPGAHRFFTDFVTGKGTLDQDDWAWDEFLAFLRLSKTPPANLLLSSYWTMGAVRHGDYIAKVRITPDPSFAAAVVRRDIDPTSAQEVFRPALEAELQERPYAFDIQVQLCTDLERMPVEDTTVEWPEQLSPSVTVAKLRLPRQDISGPENLEKMDSLSFTPWRVTAEHAPLGNIMRSRKEVYRQSSMERHKLEHHHHHH | not soluble |
| GPGSMRCIGMMEELVAEGCSAIKSRHDKTNEELGDLRLQVHQEYLEAFRRLYKTLGQLVYKKEKRLEEIDRNIRTTHIQLEFAIETFDPNAKKHSDAKKELYKLRAQVEEELEMLKDKMAQALEMFGPTEDALNQAGIEFVHPAEEVEDGNLTRRSKMVEYRAHLAKQEEVKIAAEREELKRSKTLQSQQYRGKTVQQITQ | soluble |
| SLLTALTADNQELFSLIDCSIDELTQIRSEQAFVCPMCHQSVILKAGPIKIPHFAHRKKNSCWYEAEAETEEHLRLKQLFAEKCLREKLSFQVEAYLPTLKQRPDLLIGKIAIEIQCSPLPIKRLVERTETYQTHGYQVVWILGERLVPKDKLTQLTKQFLYFSESLGFYLWSANKKQERIELLCHIEESQCQQFYRRKQSWDFYEKQLLEIFRLPTANLNLLPDRRHTGQLMHDYYQKLTQQLGYRNAQLLRTQSFLYTKGCHLLQLPPWFYYPGLKLIPSSEEDIHLKMLVWEALKTEEERLVTKQELWRILEAIFLEEGNFVWQPLPNIGLKKLFKIVGNNLLRWLQECYVLIKVNNKYLITSIFLREDPEKLIHWLKKVKKQHFFSHTC | soluble |
| MGSDKIHHHHHHMGVRQKKIAAHDLEIGMFVSDLDRPWHQTPFPIQGFYLRSENDLKAVVSHCKWVMIDVAETREEITLGSDKVRPFARRSSARSGGREELQLAPLSIREPVVYKNDVPLRKELKASRKLLNDAELALSRMFETIRDDQMPDLRPAAEVTRRMVESVIRQPNALLWLSRTRQYDDFVYRHALNTAVWALVCGRQLGLNEGLLNHLGVGCLLSQVGKTALPKEMLAREHQLSTEEYATYRTYVERGCQMLEGAGLSRAVMSVVQGHRERHNGSGFPQGIRGDRIPLLAKVAGIAEFFESLIAPRDDQDPMTPAKAVSLLYDMRNIEFQEDLVEAFIQGVGVYPTGTLVELSDGQRGIVVSHSPGRRLWPSVMVMQDAEHRPLKSARIVDLARHIESRAASELLTVRECLPHGTDGLDPAGFDVTGAESRWSLGKLINR | not soluble |
| MSLAVEAVIWDFGGVFTTSPFEAFRRYETERGLPKDFIRTVNATDPDANAWARFERAEIDAAAFDGLFRQEALRLGHDVRGADVLPLLYGDLRPSVMAALKTCKAQFKVGCITNNVPTGHGPGMAQSAEKALAVGEIMALFDAVIESSKAGVRKPDPRIYQMMCELLGVAPEACIYLDDLGINCKPAAALGMTAIKVSDERQLLDDLAKATGLAFEGHHHHHH | soluble |
| MGSDKIHHHHHHMTKNNEAGWNLDNSYATLPHSFYTEIPPTPVSSPELVKLNHSLAISLGFNPEELKKETEIAIFAGNALPEGAHPLAQAYAGHQFGHFNMLGDGRALLIGEQITPSGKRFDIQLKGSGPTPYSRRGDGRAALGPMLREYIISEAMYALDIPTTRSLAVVTTGEPTYRETKLPGAILTRVASSHIRVGTFQYAAARGSIEDLQSLADYTIKRHYPEIEDPENRYTALLQEVIKKQASLIAKWQLVGFIHGVMNTDNITISGETIDYGPCAFMDHYDQGTVFSSIDTQGRYAYGNQPYMAAWDLARLAESLIPILHEDEEEALKIAQDEISKFSVQYENLWFLGMKKKLGLFSNEEQDHSLIEQLLKMMEKYKADYTNTFRSLTLNTLENTPLFDSSEFKEWYKLWQSRLERQDESKENAYEMMKNNNPSIIPRNHRVEEALEAAVTNGDYSVMEKLLEALANPYAYATDQEEYCVTPAPTNRPYRTFCGT | not soluble |
